Results on three molecules are retold here after patent publication US20240148898A1.

Experiment [1] has as its target recombinant PD-L1 protein (PD-1 ligand), species not stated. The experiment in a line: ELISA.
The target is the same in experiment [2]. Put plainly: MST.

recombinant PD-L1 protein (PD-1 ligand), species not stated, sequence (Q9NZQ7 whole entry): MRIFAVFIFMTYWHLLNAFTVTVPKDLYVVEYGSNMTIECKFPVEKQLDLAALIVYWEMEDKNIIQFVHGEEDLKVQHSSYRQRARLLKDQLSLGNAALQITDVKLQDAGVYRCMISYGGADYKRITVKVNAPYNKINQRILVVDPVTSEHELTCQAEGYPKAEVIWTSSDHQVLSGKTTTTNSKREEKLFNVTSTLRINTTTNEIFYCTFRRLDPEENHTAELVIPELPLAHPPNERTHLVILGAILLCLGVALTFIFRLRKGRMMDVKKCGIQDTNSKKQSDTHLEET

B1: huHF-αPD-L1 HCDR3 (CD loop), Examples 1-6 (designed binder)
chain: MTTASTSQVRQNYHQDSEAAINRQINLELYASYVYLSMSYYFDRDDVALKNFAKYFLHQSHEEREHAEKLMKLQNQRGGRIFLQDIKKPDCDDWESGLNAMECALHLEKNVNQSLLELHKLATDKNDSGHGYSYGAFDYPHLCDFIETHYLNEQVKAIKELGDHVTNLRKMGAPESGLAEYLFDKHTLGDSDNES
For B1, in experiment [1], the Kd is 71.2 nM.

B2: huHF-TPP1 (CD loop) (designed binder, not shown: small tags and cut ends)
chain: MTTASTSQVRQNYHQDSEAAINRQINLELYASYVYLSMSYYFDRDDVALKNFAKYFLHQSHEEREHAEKLMKLQNQRGGRIFLQDIKKPDCDDWESGLNAMECALHLEKNVNQSLLELHKLATDKNDSGQYASYHCWCWRDPGRSGGSKPHLCDFIETHYLNEQVKAIKELGDHVTNLRKMGAPESGLAEYLFDKHTLGDSDNES
B2: the Kd in experiment [2] stood at 115 nM.

B3: huHF-TPP1 (AB loop) (designed binder, not shown: small tags and cut ends)
chain: MTTASTSQVRQNYHQDSEAAINRQINLELYASYVYLSMSYYFDRDDSGQYASYHCWCWRDPGRSGGSKVALKNFAKYFLHQSHEEREHAEKLMKLQNQRGGRIFLQDIKKPDCDDWESGLNAMECALHLEKNVNQSLLELHKLATDKNDPHLCDFIETHYLNEQVKAIKELGDHVTNLRKMGAPESGLAEYLFDKHTLGDSDNES
In the case of B3, the Kd in experiment [2] worked out at 72.1 nM.

For orientation: Kd means the equilibrium constant for the complex coming apart.
